Read-outs that look alike come from different tables or passages of the source.

Assay [1] deals with Δ131Δ with a K16C mutation (model client). Nature of the assay: fluorescence polarisation. (In general: Fluorescence polarisation rises when a labelled molecule tumbles more slowly, as on binding a larger partner.)
Assay [2] shares this target. Nature of the assay: fluorescence polarisation. This is another data set of the same source.
The target of assay [3] is Grp94 full-length (FL) wild type (human, UniProt P14625 22-803, biotin label (Grp94 NH3-bio), in the streptavidin pull-down). Nature of the assay: pull-down.
Grp94 full-length (FL) wild type (human, UniProt P14625 22-803, biotin label (Grp94 NH3-bio), in the streptavidin pull-down), sequence (P14625 22-803): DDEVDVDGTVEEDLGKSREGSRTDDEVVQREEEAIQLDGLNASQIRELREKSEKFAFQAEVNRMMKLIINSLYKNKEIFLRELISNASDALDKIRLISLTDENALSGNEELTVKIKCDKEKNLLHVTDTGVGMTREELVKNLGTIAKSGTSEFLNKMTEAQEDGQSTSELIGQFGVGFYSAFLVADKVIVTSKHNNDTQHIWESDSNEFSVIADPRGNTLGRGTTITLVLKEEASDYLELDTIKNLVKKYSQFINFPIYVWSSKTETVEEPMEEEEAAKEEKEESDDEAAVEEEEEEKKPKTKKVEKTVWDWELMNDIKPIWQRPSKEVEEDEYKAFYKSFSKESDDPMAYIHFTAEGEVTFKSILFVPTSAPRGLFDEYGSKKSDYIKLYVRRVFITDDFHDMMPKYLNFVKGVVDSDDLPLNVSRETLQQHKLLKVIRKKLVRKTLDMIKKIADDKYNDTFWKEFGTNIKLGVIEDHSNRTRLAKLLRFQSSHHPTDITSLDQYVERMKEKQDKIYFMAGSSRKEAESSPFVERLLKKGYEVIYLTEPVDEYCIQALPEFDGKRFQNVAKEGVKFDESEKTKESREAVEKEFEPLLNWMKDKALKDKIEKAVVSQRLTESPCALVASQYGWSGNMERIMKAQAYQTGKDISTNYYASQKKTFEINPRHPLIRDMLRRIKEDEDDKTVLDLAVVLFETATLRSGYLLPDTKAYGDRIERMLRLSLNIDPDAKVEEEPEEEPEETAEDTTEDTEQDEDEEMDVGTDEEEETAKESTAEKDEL

As a reminder, the Kd is the free concentration of one partner at which half of the binding sites on the other are occupied at equilibrium, for simple one-to-one binding. A high value points to a looser complex. In assay [1], “Grp94 full-length (FL) wild type (from UniProt P14625 22-803) (natural protein)” registered a fold decrease of binding affinity against apo conditions of 2 fold. In assay [2], this molecule displayed a Kd of 7.2 µM and a fold decrease of binding affinity against apo conditions of 2 fold.

As to “Grp94 Δ72 (pre-N domain truncation, aa 73-803) (from UniProt P14625 73-803) (domain or fragment)”, the fold decrease of binding affinity against apo conditions in assay [1] was found to be 6 fold; in assay [2], 4 fold.

B1: DnaJB11 (BiP co-chaperone, J-protein) (natural protein)
chain: GRDFYKILGVPRSASIKDIKKAYRKLALQLHPDRNPDDPQAQEKFQDLGAAYEVLSDSEKRKQYDTYGEEGLKDGHQSSHGDIFSHFFGDFGFMFGGTPRQQDRNIPRGSDIIVDLEVTLEEVYAGNFVEVVRNKPVARQAPGKRKCNCRQEMRTTQLGPGRFQMTQEVVCDECPNVKLVNEERTLEVEIEPGVRDGMEYPFIGEGEPHVDGEPGDLRFRIKVVKHPIFERRGDDLYTNVTISLVESLVGFEMDITHLDGHKVHISRDKITRPGAKLWKKGEGLPNFDNNNIKGSLIITFDVDFPKEQLTEEAREGIKQLLKQGSVQKVYNGLQGY
As to B1, in assay [3], the binding result is reported as “binds”.

These data come from paper PMC10962938 (Proceedings of the National Academy of Sciences of the …, 2024).
